Experiments:
[1] = target: T1, recombinant p53 (Mus musculus, UniProt P02340); assay: ELISA of sera of Ab1-immunized mice for Ab3 anti-p53 antibodies; type: in vivo
T1 construct: made in house; host or cells: E. coli BL21 (DE3)
Description: (§1) E. coli BL21 (DE3) cells were transformed with the T7 expression vector containing mouse p53 DNA (Shohat-Foord et al, 1991). P53 was purified as described (Wolkowicz et al, 1995). All peptides, including the p53 peptide epitope of PAb-421 ([…]) (residues 364-383 of SEQ ID NO:1) were prepared using an automated synthesizer (Abimed AMS 422; Langenfeld, Germany) according to the manufacturer. Peptide purity was tested by analytical reverse phase HPLC and mass spectroscopic analysis.
(§2) ELISA assays were conducted in 96-well Maxisorp plates (Nunc, Roskilde, Denmark), which were coated with 10 μg test antigen per ml in PBS. After washing and blocking with 1% BSA in PBS for one hour at 37° C., diluted test sera (0.1 ml per well) was added for one hour at 37° C., followed by one hour incubation with goat anti-mouse IgG Fc specific, or IgG-isotype specific secondary antibodies conjugated to alkaline phosphatase, diluted 1:5000 (Jackson, Philadelphia, Pa.). A substrate solution containing 0.6 mg/ml of p-nitrophenylphosphate (Sigma, Rehovot, Israel) in diethanolamine-H2O, pH 9.8, was added, and the plates were read at 405 nm.
To test whether immunization to Ab1 could induce Ab3, immunized mice were assayed for antibodies to p53. […] However, Ab1 antibodies PAb-246 and PAb-421 induced a stronger Ab3 anti-p53 response in the BALB/c strain than they did in the C57BL/6 strain.

[2] = test system: native, histone-free DNA of Crithidia luciliae; assay: Crithidia luciliae assay of sera of Ab1-immunized mice; type: in vivo; details: sera of BALB/c mice immunized to the Ab1
Description: Slides with Crithidia were purchased from Immco (Buffalo, N.Y.) and incubated with the test sera according to the manufacturer's protocol.
Test sera were then examined for binding to DNA using the Crithidia luciliae assay, which detects antibodies—to native, histone-free DNA exposed at the base of the Crithidia flagellum. Both BALB/c and C57BL/6 mice immunized to […] or PAb-248 were negative for anti-DNA antibodies in the Crithidia assay, as were C57BL/6 mice immunized to PAb-421. […] The finding of positive reactivity in the Crithidia assay correlates with the clinical disease seen in the BALB/c mice. The Crithidia luciliae assay is used clinically for its diagnostic specificity for lupus in humans (Aarden et al, 1975).

[3] = test system: BALB/c and C57BL/6 mice; assay: Induction of SLE-like disease by Ab1 immunization (proteinuria, histology, leukocyte counts); type: in vivo
Description: Paraffin sections of tissue samples were either stained with hematoxylin and eosin, or immunostained with a peroxidase-labeled anti-mouse-IgG antibody (Jackson, Philadelphia, Pa.) and DAB (Sigma) according to the manufacturer's instructions.
Proteinuria was detected with Albustix strips (Bayer, Slough, UK). Leukocytes were counted from heparinized blood following 10-fold dilution in 1% acetic acid.

[4] = test system: single-stranded calf thymus DNA; assay: Anti-DNA ELISA of sera of Ab1-immunized mice; type: in vivo; details: sera of BALB/c mice immunized with the Ab1
Description: (§3) For anti-DNA ELISA, a secondary antibody conjugated to horseradish peroxidase, and as substrate 1 mg/ml ABTS in 0.2 M citric acid, 0.2 M Na2HP04, and 3% H202 (all from Sigma) was used. The test antigens used were (Fab) 2 fragments of Ab2 anti-PAb-421, which were prepared as described (Harlow et al, 1988), recombinant p53, the p53 peptide epitope of PAb-421, histones or, after pre-coating with methylated BSA, calf thymus DNA (all from Sigma). All antibody titers are shown as the O. D. produced by the test sera at a dilution of 1:100. Dots represent individual sera, bars represent the median of each group.

[5] = test system: histones; assay: ELISA of sera of Ab1-immunized mice for anti-histone antibodies; type: in vivo; details: mice immunized with Ab1, bled two weeks after second boost
Description: as §2, §3

[6] = target: T2, p53 peptide epitope of PAb-421 (364-383 of SEQ ID NO:1) (Mus musculus, UniProt P02340); assay: ELISA of sera of Ab1-immunized mice for Ab3 to the p53 peptide epitope of PAb-421; type: in vivo
T2 construct: made in house; host or cells: chemical synthesis (Abimed AMS 422)
T2 sequence (P02340 364-383 limits assumed): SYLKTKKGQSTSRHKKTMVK
Description: as §1
ELISA assays were conducted in 96-well Maxisorp plates (Nunc, Roskilde, Denmark), which were coated with 10 μg test antigen per ml in PBS. […] A substrate solution containing 0.6 mg/ml of p-nitrophenylphosphate (Sigma, Rehovot, Israel) in diethanolamine-H2O, pH 9.8, was added, and the plates were read at 405 nm.
Because the two mouse strains differed in their Ab1 response to PAb-421, it was conceivable that they also might differ in their Ab3 response to this Ab1 antibody. The specificity of the Ab3 response was analyzed by probing test sera for antibodies to the C-terminal peptide epitope of p53 that is recognized by the inducing PAb-421 (amino acids 364-383 of SEQ ID NO:1).

[7] = test system: (Fab)2 fragments of the Ab1 anti-p53 antibodies; assay: ELISA of sera of Ab1-immunized mice for Ab2 anti-idiotypic antibodies; type: in vivo
Description: as §2
as §3, with “Dots represent individual sera, bars represent the median of each group.” left out
To learn whether both strains of mice responded to the Ab1 immunization by making Ab2 anti-idiotypic antibodies, the reactivity of their sera to the (Fab)2 fragment of the Ab1 anti-p53 antibodies was determined.

[8] = test system: p53-responsive element oligonucleotide; assay: Band shift assay of sera of Ab1-immunized mice; type: in vivo; details: sera of BALB/c mice immunized to the Ab1
[9] = test system: Ab2 of immunized C57BL/6 mice cross-reactive to PAb-246 and PAb-421; assay: Absorption of Ab2 cross-reactivity by preincubation with anti-p53 antibodies; type: binding; details: sera of immunized C57BL/6 mice preincubated with the antibody
Description: FIG. 2 is a graph showing cross-reactivity of C57BL/6 mouse Ab2 to PAb-246 and PAb-421. […] The mean percent inhibition (+SD) of the reactivity to PAb-246 or PAb-421 by preincubation is shown.
The Ab2 cross-reactivity of the C57BL/6 mice seemed to be limited to PAb-246 and PAb-421. To confirm the Ab2 cross-reactivity between PAb-246 and PAb-421, tests were conducted to determine whether preincubation with either of the anti-p53 antibodies could absorb out the cross-reactivity. […] The mean percent inhibition (+SD) of the reactivity to PAb-246 or PAb-421 by preincubation is shown.

T1 sequence (P02340 whole entry): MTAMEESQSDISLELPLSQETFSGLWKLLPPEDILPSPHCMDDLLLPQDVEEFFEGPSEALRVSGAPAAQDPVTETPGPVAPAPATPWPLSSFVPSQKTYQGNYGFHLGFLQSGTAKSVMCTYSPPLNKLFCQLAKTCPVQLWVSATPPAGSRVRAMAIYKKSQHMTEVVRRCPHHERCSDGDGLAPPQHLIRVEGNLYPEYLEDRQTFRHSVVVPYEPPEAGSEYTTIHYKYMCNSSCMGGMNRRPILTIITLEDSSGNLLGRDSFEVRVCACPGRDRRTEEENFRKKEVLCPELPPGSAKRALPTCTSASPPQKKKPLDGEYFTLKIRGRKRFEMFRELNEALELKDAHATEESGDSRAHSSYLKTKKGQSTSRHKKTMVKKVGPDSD

B1: PAb-421: monoclonal antibody (Ab1) against the C-terminal DNA-binding domain of murine p53; VH SEQ ID NO:2, VL SEQ ID NO:3 (antibody, listed as Mus sp., V domains shown)
VH: QVKLQESGAELVRSGASVKLSCTASGFNIKDYYMHWVKQRPEQGLEWIGWIDPENGDTEYAPKFQGKATMTADTSSNTAYLQLSSLASEDTAVYYCNFYGDALDYWGQGTTVTVSS
VL: DIQLTQSPLTLSVTIGQPASISCKSSQSLLDSDGKTYLNWLLQRPGQSPKRLIYLVSKLDSGVPDRFTGSGSGTDFTLKINRVEAEDLGVYYCWQGTHSPLTFGAGTKLK
modifications: BINDING (26)..(35) Complementary Determining Region; BINDING (24)..(39) Complementary Determining Region
B1 was tested, and the “induction of Ab3 anti-p53 antibodies (FIG. 4A)” value ([1]; BALB/c mice) was “make anti-p53 antibodies”, the “induction of Ab3 anti-p53 antibodies (FIG. 4A)” value ([1]; C57BL/6 mice) was “make anti-p53 antibodies” and the “anti-DNA antibodies in the Crithidia assay” value [2] was “produced anti-DNA antibodies detectable by the Crithidia assay”. The “immunized mice that exhibited proteinuria” value ([3]; 80 BALB/c mice immunized with Ab1) was “about 95%”, the “development of lupus after Ab1 immunization” value ([3]; BALB/c mice) was “develop a lupus-like disease” and the “mice leukopenic (<4000 leukocytes per ml) and lymphopenic (<1200 lymphocyte per ml)” value ([3]; BALB/c mice immunized with Ab1) was “Seven out of ten”. The “development of lupus after Ab1 immunization” value ([3]; C57BL/6 mice) was “did not develop disease”, the “anti-DNA reactivity to single stranded calf thymus DNA (FIG. 3)” value [4] was “High anti-DNA reactivity” and the “mice that developed significant titers of anti-histone antibodies” value [5] was “About 30%”. For the same molecule, the “Ab3 antibodies to the p53 peptide epitope of PAb-421 (FIG. 5)” value ([6]; BALB/c mice) was “made antibodies to the peptide epitope of PAb-421”, the “Ab3 antibodies to the p53 peptide epitope of PAb-421 (FIG. 5)” value ([6]; C57BL/6 mice) was “did not make antibodies to the C-terminal p53 peptide” and the “Ab2 anti-idiotypic response, specificity (FIG. 1)” value ([7]; BALB/c mice) was “made antibodies specific to PAb-421”. For the same molecule, the “Ab2 anti-idiotypic response, specificity (FIG. 1)” value ([7]; C57BL/6 mice) was “cross-reacted to both PAb-246 and PAb-421”, the “anti-DNA Ab2 to the p53-responsive element (band shift)” value [8] was “did not make such anti-DNA antibodies” and the “absorption of Ab2 cross-reactivity between PAb-246 and PAb-421 by preincubation (FIG. 2)” value [9] was “absorbed out significantly”.
